± gives the standard error. Variants at the floor of the assay were thinned out.
B1: glmS ribozyme (parent)
chain: AUAAAAGCGCCAGAACUACAGAAAUGUAGUUGACGAGGAGGAGGUUUAUCGAAUUUUCGGCGGAUGCCUCCAAA

How the values were obtained:
Conditions in all cases: with glucosamine-6-phosphate
glucosamine-6-phosphate [1] = variants of: B1; assay: self-cleavage kobs at 160 uM GlcN6P; higher = faster cleavage; RNA array
In short: (§1)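 Glucosamine-6-phosphate in HEPES/KCl/Mg(OAc)2 buffer, at 40 μM to 10 mM, was flowed over barcoded ribozyme variants transcribed in situ by E. coli RNA polymerase on sequenced MiSeq chips. Tracking was through a hybridised Cy3 probe at 37 °C. kobs, kcat and KM came from exponential decay fits and weighted Michaelis–Menten fits of normalised per-tile medians.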

glucosamine-6-phosphate [2] = variants of: B1; assay: self-cleavage kobs at 640 uM GlcN6P; higher = faster cleavage; RNA array
In short: as §1

glucosamine-6-phosphate [3] = variants of: B1; assay: self-cleavage kobs at 2500 uM GlcN6P; higher = faster cleavage; RNA array
In short: as §1

glucosamine-6-phosphate [4] = variants of: B1; assay: self-cleavage kobs at 10000 uM GlcN6P; higher = faster cleavage; RNA array
In short: as §1

Variant	self-cleavage kobs at 160 uM GlcN6P (glucosamine-6-phosphate [1]) [s⁻¹]	self-cleavage kobs at 640 uM GlcN6P (glucosamine-6-phosphate [2]) [s⁻¹]	self-cleavage kobs at 2500 uM GlcN6P (glucosamine-6-phosphate [3]) [s⁻¹]	self-cleavage kobs at 10000 uM GlcN6P (glucosamine-6-phosphate [4]) [s⁻¹]
C16G G29U G37A	5.27e-05 ± 1.6e-05	0.000272 ± 7.4e-05	0.000382 ± 9.7e-05	–
U30A G35C C50G C68A C71U	8.36e-05 ± 2.8e-05	0.00197 ± 0.00057	0.000671 ± 0.00025	–
A15U A42C	< 1e-05	< 1e-05	< 1e-05	< 1e-05
C16A A39U C58A U65A	< 1e-05	< 1e-05	< 1e-05	–
U30A A53U C70U	0.000167 ± 4.8e-05	0.000821 ± 0.0002	–	–
G35U G37C	< 1e-05	< 1e-05	< 1e-05	–
A36C G38A G44C C67U C68G	< 1e-05	< 1e-05	< 1e-05	–
U17G	0.00191 ± 0.00076	0.00535 ± 0.0016	–	–
G32U C50G	5.71e-05 ± 2e-05	–	–	–
C16G G37A A48U U49C	< 1e-05	–	–	–
A33U U69G	5e-05 ± 2e-05	0.000237 ± 6.3e-05	–	–
G29U G38C A39U C50A	< 1e-05	< 1e-05	–	–
G35U A36U G37U G66U	< 1e-05	–	–	–
U30G A36U	< 1e-05	< 1e-05	–	–
A33G A53U	< 1e-05	–	< 1e-05	< 1e-05
A33U G37U G43A	< 1e-05	–	–	–
U30A G63A	< 1e-05	< 1e-05	< 1e-05	< 1e-05
A33U A48G	< 1e-05	< 1e-05	< 1e-05	–
A36C G44C	< 1e-05	–	< 1e-05	< 1e-05
U30G G40U A42C C58A	< 1e-05	< 1e-05	< 1e-05	–
U30A G59U C61U	< 1e-05	< 1e-05	–	–
U17C C50G C71U	6.74e-05 ± 2.2e-05	0.000319 ± 9.7e-05	0.000253 ± 4.6e-05	–
U30C G35U C58U C61A	< 1e-05	< 1e-05	< 1e-05	–
G32C U69A	< 1e-05	0.00639 ± 0.0029	–	2.46e-05 ± 1.2e-05
G35U G43A	< 1e-05	–	< 1e-05	< 1e-05

Variant	self-cleavage kobs at 160 uM GlcN6P (glucosamine-6-phosphate [1]) [s⁻¹]	self-cleavage kobs at 640 uM GlcN6P (glucosamine-6-phosphate [2]) [s⁻¹]	self-cleavage kobs at 2500 uM GlcN6P (glucosamine-6-phosphate [3]) [s⁻¹]	self-cleavage kobs at 10000 uM GlcN6P (glucosamine-6-phosphate [4]) [s⁻¹]
C34U G41A	< 1e-05	< 1e-05	< 1e-05	< 1e-05
G32A A52U G63C	< 1e-05	< 1e-05	< 1e-05	–
U30G G32U A36U G60A U69C C71A	< 1e-05	–	–	–
G32C G60U	< 1e-05	< 1e-05	< 1e-05	< 1e-05
G29C G37C G41C	< 1e-05	–	< 1e-05	–
G35A U46G	< 1e-05	< 1e-05	< 1e-05	–
A33U U45G	< 1e-05	–	–	3.8e-05 ± 7.6e-06
C34U U49G	< 1e-05	–	< 1e-05	< 1e-05
G32C U46A C50A A52U	< 1e-05	< 1e-05	< 1e-05	–
C16U G29C C50G	0.000111 ± 3.4e-05	–	6.6e-05 ± 2.7e-05	–
U30C A42U U49A	< 1e-05	< 1e-05	< 1e-05	–
C16A C50G U55C G63C C70G	0.000129 ± 4.7e-05	0.00119 ± 0.00038	–	–
C16A U31C U56G	3.96e-05 ± 1.5e-05	9.16e-05 ± 1.9e-05	0.000266 ± 5.4e-05	–
G29U U69C	3.84e-05 ± 1.5e-05	0.000356 ± 9e-05	0.000114 ± 3.1e-05	–
G32C C34U A36U C61U	< 1e-05	< 1e-05	–	–
A33G A39C	< 1e-05	< 1e-05	< 1e-05	< 1e-05
U31C G40A A53U	9.65e-05 ± 3.1e-05	7.74e-05 ± 1.7e-05	–	–
G32U G44U U47G A64C	< 1e-05	–	< 1e-05	–
A33G G37U C50G	6.35e-05 ± 3.1e-05	–	0.000141 ± 4.1e-05	–
A33G G40C G63U	< 1e-05	< 1e-05	< 1e-05	–
U31A A42C C70G	< 1e-05	< 1e-05	–	–
G35A C68U C70G	< 1e-05	< 1e-05	< 1e-05	–
C34G A53G C68G	0.000101 ± 2.4e-05	0.000115 ± 2.5e-05	8.44e-05 ± 3.6e-05	–
G29A G62A	< 1e-05	< 1e-05	< 1e-05	–
A36C G37C A52U A64G C70G	< 1e-05	< 1e-05	–	–

Variant	self-cleavage kobs at 160 uM GlcN6P (glucosamine-6-phosphate [1]) [s⁻¹]	self-cleavage kobs at 640 uM GlcN6P (glucosamine-6-phosphate [2]) [s⁻¹]	self-cleavage kobs at 2500 uM GlcN6P (glucosamine-6-phosphate [3]) [s⁻¹]	self-cleavage kobs at 10000 uM GlcN6P (glucosamine-6-phosphate [4]) [s⁻¹]
C34A G63A	< 1e-05	< 1e-05	< 1e-05	–
U31A U46G G66A	6.92e-05 ± 2.9e-05	0.000303 ± 0.00015	0.000638 ± 0.00022	–
U30G U31C A33U U45A U55A	< 1e-05	–	–	–
C19A C34G A39C	< 1e-05	< 1e-05	< 1e-05	–
U30A G32A A39G	6.92e-05 ± 2.4e-05	0.000602 ± 0.00013	0.000618 ± 0.0002	0.00306 ± 0.00073
C34U C70U	< 1e-05	< 1e-05	–	–
G35U G66C	< 1e-05	< 1e-05	< 1e-05	–
C16G G29C C71G	9.16e-05 ± 1.5e-05	–	–	–
A15G C16U A33U A39G	< 1e-05	–	–	–
A33U A53U U69G	3.89e-05 ± 1.8e-05	0.000215 ± 7.6e-05	5.61e-05 ± 2.6e-05	–
C16G U30A C58U G59A G60U C67G	< 1e-05	–	–	–
U30G G35U G44U U46G U65C	< 1e-05	< 1e-05	< 1e-05	–
G35A G43A	< 1e-05	–	< 1e-05	–
U30C C50U C70G	5.6e-05 ± 1.7e-05	0.000134 ± 3.3e-05	0.000173 ± 3.3e-05	–
A36C A39U U57C	< 1e-05	–	–	–
C16G A48C G62U	< 1e-05	< 1e-05	–	–
C16G A33C C71U	< 1e-05	< 1e-05	< 1e-05	–
A33C U69C	< 1e-05	< 1e-05	–	–
A33C U69G	< 1e-05	–	< 1e-05	< 1e-05
G35A U57A	< 1e-05	< 1e-05	< 1e-05	< 1e-05
A33U U47C C67G	< 1e-05	< 1e-05	< 1e-05	–
A33G A42C	< 1e-05	< 1e-05	< 1e-05	< 1e-05
G26U A52G	9.82e-05 ± 2.9e-05	–	0.000726 ± 0.00017	–
U30A G51A	< 1e-05	–	–	–
A36G C61G	< 1e-05	< 1e-05	–	< 1e-05

Variant	self-cleavage kobs at 160 uM GlcN6P (glucosamine-6-phosphate [1]) [s⁻¹]	self-cleavage kobs at 640 uM GlcN6P (glucosamine-6-phosphate [2]) [s⁻¹]	self-cleavage kobs at 2500 uM GlcN6P (glucosamine-6-phosphate [3]) [s⁻¹]	self-cleavage kobs at 10000 uM GlcN6P (glucosamine-6-phosphate [4]) [s⁻¹]
A33C U46C U56C G59C	< 1e-05	< 1e-05	< 1e-05	–
G32A G37C	< 1e-05	< 1e-05	< 1e-05	< 1e-05
G29C G59U C68U	0.000173 ± 8.1e-05	–	–	–
G35A A42C	< 1e-05	< 1e-05	–	< 1e-05
G35A U56G A64G	< 1e-05	–	< 1e-05	< 1e-05
A36G G44A U55C U65G	< 1e-05	< 1e-05	< 1e-05	–
A15U A36C G41U C71G	< 1e-05	< 1e-05	–	–
A36U G60A	< 1e-05	–	< 1e-05	< 1e-05
A15G G21C A39G G40C A48C C58U	< 1e-05	–	–	–
C34A G44U A53C U55G	< 1e-05	–	–	–
G32U C61U	< 1e-05	< 1e-05	–	–
A36U C50U	< 1e-05	–	< 1e-05	–
A36C G51C	< 1e-05	–	–	< 1e-05
U31G A52C	< 1e-05	< 1e-05	–	–
G32C C71U	< 1e-05	–	2.98e-05 ± 1.2e-05	9.6e-05 ± 1e-05
A15G C58G C68U	8.66e-05 ± 3.1e-05	6.1e-05 ± 1.7e-05	5.67e-05 ± 1.6e-05	3.61e-05 ± 1.6e-05
U31G G35A	< 1e-05	< 1e-05	–	< 1e-05
A15G C16G A33C U49G A53U	< 1e-05	< 1e-05	–	–
G29A A42G U45A	6.61e-05 ± 3e-05	0.00154 ± 0.00038	0.00402 ± 0.0015	–
A15U A33U C50U G51U G62U G63A C70U	9.07e-05 ± 2.6e-05	0.000118 ± 3.6e-05	7.13e-05 ± 2.3e-05	–
U30C A36C C50G G59C	0.000229 ± 9.7e-05	–	–	–
C16G A39G A48G C58G A64U	< 1e-05	< 1e-05	–	–
G29U A42U A48U G62A	< 1e-05	–	< 1e-05	–
C34A A42G G66U	< 1e-05	< 1e-05	< 1e-05	–
U30G A33U	< 1e-05	–	–	–

Source: the supplement of paper PMC7125110
